Laboratory results taken from the supplement of paper PMC9112550, “Optimization of the antimicrobial peptide Bac7 by deep mutational scanning” (BMC Biology, 2022).

Test system: Escherichia coli TOP10
Assay: shrunken log2 fold change of peptide-encoding DNA abundance (4.5 h post-induction vs induction); higher = less antimicrobial activity (less host growth inhibition)
Details: time post-induction: 4.5 h; library: site-saturation at positions 5, 18, 19, 20
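Further: peptides expressed intracellularly from a pBAD plasmid library in pooled LB shake-flask culture, induced with 0.3% L-arabinose, DNA abundance read by NGS, three biological replicates, DESeq2 with apeglm shrinkage.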

Row | Sequence | shrunken log2 fold change
1 | RRIRVRPPRLPRPRPRPPHKPRP | 0.274
2 | RRIRPRPPRLPRPRPRPCLEPRP | -0.0989
3 | RRIRARPPRLPRPRPRPHCVPRP | 0.0669
4 | RRIRRRPPRLPRPRPRPVSRPRP | -0.0137
5 | RRIRARPPRLPRPRPRPCQWPRP | -0.0491
6 | RRIRDRPPRLPRPRPRPVQDPRP | 0.0144
7 | RRIRLRPPRLPRPRPRPAHEPRP | 0.408
8 | RRIRHRPPRLPRPRPRPRVCPRP | 0.318
9 | RRIRYRPPRLPRPRPRPVHQPRP | -0.0229
10 | RRIRRRPPRLPRPRPRPFGCPRP | 0.222
11 | RRIRYRPPRLPRPRPRPRRKPRP | 0.0824
12 | RRIRGRPPRLPRPRPRPAQMPRP | 0.305
13 | RRIRTRPPRLPRPRPRPLSIPRP | -0.487
14 | RRIRQRPPRLPRPRPRPYFDPRP | -0.202
15 | RRIRRRPPRLPRPRPRPMPAPRP | 0.203
16 | RRIRVRPPRLPRPRPRPWAMPRP | -0.0382
17 | RRIRCRPPRLPRPRPRPKRIPRP | -0.143
18 | RRIRIRPPRLPRPRPRPYVHPRP | -0.189
19 | RRIRHRPPRLPRPRPRPWGTPRP | -0.44
20 | RRIRFRPPRLPRPRPRPHTKPRP | -0.0159
21 | RRIRKRPPRLPRPRPRPWFGPRP | 0.0558
22 | RRIRQRPPRLPRPRPRPNPEPRP | 0.0266
23 | RRIRPRPPRLPRPRPRPWSAPRP | -0.00633
24 | RRIRQRPPRLPRPRPRPNRHPRP | 0.115
25 | RRIRVRPPRLPRPRPRPIMIPRP | -1.08

Row | Sequence | shrunken log2 fold change
26 | RRIRPRPPRLPRPRPRPMLYPRP | -0.0392
27 | RRIRKRPPRLPRPRPRPGPKPRP | 1.15
28 | RRIRERPPRLPRPRPRPSEKPRP | -0.0759
29 | RRIRMRPPRLPRPRPRPETFPRP | 0.211
30 | RRIRGRPPRLPRPRPRPGDRPRP | 1
31 | RRIRGRPPRLPRPRPRPQLAPRP | 1.19
32 | RRIRRRPPRLPRPRPRPFPTPRP | 0.164
33 | RRIRLRPPRLPRPRPRPNAGPRP | 0.0644
34 | RRIRERPPRLPRPRPRPSLRPRP | -0.313
35 | RRIRERPPRLPRPRPRPWNMPRP | -0.0894
36 | RRIRCRPPRLPRPRPRPQWLPRP | -0.133
37 | RRIRERPPRLPRPRPRPQLYPRP | -0.441
38 | RRIRTRPPRLPRPRPRPAYKPRP | 0.0328
39 | RRIRQRPPRLPRPRPRPDPLPRP | 0.00221
40 | RRIRFRPPRLPRPRPRPTLWPRP | 0.275
41 | RRIRIRPPRLPRPRPRPAWNPRP | 0.146
42 | RRIRSRPPRLPRPRPRPMIQPRP | 0.0624
43 | RRIRARPPRLPRPRPRPEMKPRP | 3.7
44 | RRIRRRPPRLPRPRPRPTNSPRP | 1.15
45 | RRIRGRPPRLPRPRPRPYRLPRP | -0.233
46 | RRIRSRPPRLPRPRPRPFSNPRP | -0.218
47 | RRIRIRPPRLPRPRPRPLQSPRP | -0.0353
48 | RRIRARPPRLPRPRPRPQEEPRP | 0.0293
49 | RRIRSRPPRLPRPRPRPKFHPRP | -0.441
50 | RRIRFRPPRLPRPRPRPGQRPRP | 0.686

Row | Sequence | shrunken log2 fold change
51 | RRIRFRPPRLPRPRPRPGERPRP | 0.266
52 | RRIRERPPRLPRPRPRPNKFPRP | -0.143
53 | RRIRTRPPRLPRPRPRPWTHPRP | -0.0143
54 | RRIRFRPPRLPRPRPRPNPIPRP | -0.423
55 | RRIRWRPPRLPRPRPRPHRIPRP | -0.225
56 | RRIRKRPPRLPRPRPRPNQGPRP | 0.079
57 | RRIRVRPPRLPRPRPRPIKAPRP | 0.0466
58 | RRIRDRPPRLPRPRPRPYAPPRP | -0.477
59 | RRIRSRPPRLPRPRPRPFMFPRP | -0.156
60 | RRIRQRPPRLPRPRPRPSTHPRP | -0.465
61 | RRIRTRPPRLPRPRPRPRSMPRP | 0.0542
62 | RRIRFRPPRLPRPRPRPHDKPRP | -0.00198
63 | RRIRRRPPRLPRPRPRPEIVPRP | 0.246
64 | RRIRYRPPRLPRPRPRPAICPRP | 0.0426
65 | RRIRVRPPRLPRPRPRPNMEPRP | -0.151
66 | RRIRDRPPRLPRPRPRPDPVPRP | 0.203
67 | RRIRVRPPRLPRPRPRPPFYPRP | -0.0377
68 | RRIRQRPPRLPRPRPRPRCLPRP | 0.176
69 | RRIRDRPPRLPRPRPRPIANPRP | 0.274
70 | RRIRDRPPRLPRPRPRPSYCPRP | -0.046
71 | RRIRVRPPRLPRPRPRPSQIPRP | -0.206
72 | RRIRWRPPRLPRPRPRPKTIPRP | 0.118
73 | RRIRERPPRLPRPRPRPFNNPRP | -0.39
74 | RRIRVRPPRLPRPRPRPCWFPRP | -0.106
75 | RRIRTRPPRLPRPRPRPHVMPRP | -0.0914

Row | Sequence | shrunken log2 fold change
76 | RRIRWRPPRLPRPRPRPLLRPRP | 0.325
77 | RRIRPRPPRLPRPRPRPKPHPRP | 0.294
78 | RRIRYRPPRLPRPRPRPSSFPRP | -0.0941
79 | RRIRMRPPRLPRPRPRPQITPRP | -0.166
80 | RRIRVRPPRLPRPRPRPISMPRP | 0.0223
81 | RRIRNRPPRLPRPRPRPCERPRP | -0.00992
82 | RRIRPRPPRLPRPRPRPLLSPRP | 0.0345
83 | RRIRMRPPRLPRPRPRPCNKPRP | -0.372
84 | RRIRIRPPRLPRPRPRPHKFPRP | -0.291
85 | RRIRGRPPRLPRPRPRPKLYPRP | 0.354
86 | RRIRYRPPRLPRPRPRPYYRPRP | -0.161
87 | RRIRRRPPRLPRPRPRPMDSPRP | -0.0307
88 | RRIRQRPPRLPRPRPRPGAKPRP | 0.177
89 | RRIRERPPRLPRPRPRPVTGPRP | -0.0257
90 | RRIRKRPPRLPRPRPRPPWAPRP | 0.496
91 | RRIRHRPPRLPRPRPRPAKKPRP | 0.0694
92 | RRIRMRPPRLPRPRPRPKLRPRP | -0.0111
93 | RRIRLRPPRLPRPRPRPVYLPRP | -1.14
94 | RRIRDRPPRLPRPRPRPAMPPRP | -0.107
95 | RRIRCRPPRLPRPRPRPLIIPRP | -1.07
96 | RRIRLRPPRLPRPRPRPRSYPRP | -0.227
97 | RRIRDRPPRLPRPRPRPSVNPRP | 0.0833
98 | RRIRCRPPRLPRPRPRPAAIPRP | 0.0247
99 | RRIRKRPPRLPRPRPRPYNAPRP | -0.171
100 | RRIRFRPPRLPRPRPRPMIPPRP | 0.00508

Row | Sequence | shrunken log2 fold change
101 | RRIRRRPPRLPRPRPRPLCAPRP | 0.646
102 | RRIRHRPPRLPRPRPRPEGSPRP | -0.0192
103 | RRIRVRPPRLPRPRPRPDLLPRP | -0.224
104 | RRIRDRPPRLPRPRPRPTDQPRP | 0.118
105 | RRIRIRPPRLPRPRPRPISMPRP | 0.0215
106 | RRIRNRPPRLPRPRPRPSHYPRP | -1.22
107 | RRIRIRPPRLPRPRPRPYFGPRP | -0.0455
108 | RRIRMRPPRLPRPRPRPVQWPRP | 0.155
109 | RRIRYRPPRLPRPRPRPTYLPRP | -0.824
110 | RRIRHRPPRLPRPRPRPCDLPRP | -0.502
111 | RRIRCRPPRLPRPRPRPCVYPRP | -0.411
112 | RRIRARPPRLPRPRPRPFCLPRP | 0.0753
113 | RRIRVRPPRLPRPRPRPFGSPRP | -0.137
114 | RRIRSRPPRLPRPRPRPPWHPRP | 0.0809
115 | RRIRGRPPRLPRPRPRPKRHPRP | 1
116 | RRIRFRPPRLPRPRPRPFWLPRP | 0.0058
117 | RRIRDRPPRLPRPRPRPSMNPRP | -0.152
118 | RRIRFRPPRLPRPRPRPTTHPRP | -0.0585
119 | RRIRFRPPRLPRPRPRPQSLPRP | -0.274
120 | RRIRERPPRLPRPRPRPDRAPRP | 0.00194
121 | RRIRDRPPRLPRPRPRPKPHPRP | 0.305
122 | RRIRSRPPRLPRPRPRPGRHPRP | 0.0088
123 | RRIRQRPPRLPRPRPRPDSIPRP | -0.00697
124 | RRIRCRPPRLPRPRPRPMPMPRP | -0.174
125 | RRIRRRPPRLPRPRPRPSINPRP | -0.13

Row | Sequence | shrunken log2 fold change
126 | RRIRHRPPRLPRPRPRPRQYPRP | -0.185
127 | RRIRHRPPRLPRPRPRPQQTPRP | 0.0173
128 | RRIRFRPPRLPRPRPRPCGGPRP | 0.12
129 | RRIRKRPPRLPRPRPRPESYPRP | 0.403
130 | RRIRDRPPRLPRPRPRPFIRPRP | -0.29
131 | RRIRARPPRLPRPRPRPFQAPRP | 0.0111
132 | RRIRPRPPRLPRPRPRPLWHPRP | -0.0751
133 | RRIRARPPRLPRPRPRPMYKPRP | -0.189
134 | RRIRGRPPRLPRPRPRPDDHPRP | 0.18
135 | RRIRTRPPRLPRPRPRPKIWPRP | 0.141
136 | RRIRGRPPRLPRPRPRPQQVPRP | 0.564
137 | RRIRERPPRLPRPRPRPWKNPRP | -0.0553
138 | RRIRFRPPRLPRPRPRPNDVPRP | 0.0386
139 | RRIRDRPPRLPRPRPRPSALPRP | 0.162
140 | RRIRLRPPRLPRPRPRPDGRPRP | -0.00938
141 | RRIRQRPPRLPRPRPRPSCRPRP | -0.28
142 | RRIRHRPPRLPRPRPRPHTHPRP | -0.725
143 | RRIRQRPPRLPRPRPRPQYPPRP | -0.199
144 | RRIRERPPRLPRPRPRPDPIPRP | -0.224
145 | RRIRTRPPRLPRPRPRPTALPRP | 0.0207
146 | RRIRTRPPRLPRPRPRPYIKPRP | -1.22
147 | RRIRTRPPRLPRPRPRPCPAPRP | 0.115
148 | RRIRRRPPRLPRPRPRPWWRPRP | 0.463
149 | RRIRVRPPRLPRPRPRPHMTPRP | -0.277
150 | RRIRSRPPRLPRPRPRPYCGPRP | -0.726
